In assay [1] the target is T1, CD16 (FcγRIIIa V158) (UniProt P08637 17-208).
T1 construct: V158 allotype as printed
Description: solution competition SPR (Biacore). The method, then: (§1) Binding to Fcγ receptors was analyzed using solution affinity surface plasmon resonance (ref Day E S, Cachero T G, Qian F, Sun Y, Wen D, Pelletier M, Hsu Y M, Whitty A. Selectivity of BAFF/BLyS and APRIL for binding to the TNF family receptors BAFFR/BR3 and BCMA. Biochemistry. 2005 Feb. 15; 44(6):1919-31.) The method utilizes conditions of so-called “mass-transport-limited” binding, in which the initial rate of ligand binding (protein binding to the senor chip) is proportional to the concentration of ligand in solution (ref BIApplications Handbook (1994) Chapter 6: Concentration measurement, pp 6-1-6-10, Pharmacia Biosensor AB). Under these conditions, binding of the soluble analyte (protein flowing over chip surface) to the immobilized protein on the chip is fast compared to the diffusion of the analyte into the dextran matrix on the chip surface. Therefore, the diffusion properties of the analyte and the concentration of analyte in solution flowing over the chip surface determine the rate at which analyte binds to the chip. In this experiment, the concentration of free Fc receptor in solution is determined by the initial rate of binding to a CM5 Biacore chip containing an immobilized IgG1 MAb. Into these Fc receptor solutions were titrated the stability engineered constructs (see Table 10.1 below). […] Initial binding rates were obtained from raw sensorgram data (FIG. 14). […] The results are shown in Table 10.1 and reported as the average of two titrations.

Assay [2] has as its target T2, CD64 (FcγRI) (UniProt P12314 16-288, limits assumed). Description: solution competition SPR (Biacore); construct titrated into receptor, free receptor read on immobilized IgG1 MAb. The method, then: as §1
Assay [3] has as its target T1, CD16 (FcγRIIIa V158). Described as above. The method, then:
as §1

Another assay deals with T3, human C1q (human, UniProt P02745 23-245; P02746 28-253; P02747 29-245).
T3 construct: Bought protein; also called complement factor C1q; Sigma human C1q (C0660)
Description: C1q ELISA. The protocol: The C1q binding assay was be performed by coating 96 well Maxisorb ELISA plates (Nalge-Nunc Rochester, N.Y., USA) with 50 μl recombinant soluble human CD40 ligand at 10 ug/ml overnight at 4° C. in PBS. The wells were aspirated and washed three times with wash buffer (PBS, 0.05% Tween 20) and blocked for 1 hour with 200 µl/well of block/diluent buffer (0.1 M Na2HP04, pH 7.0, 1 M NaCl, 0.05% Tween 20, 1% gelatin). The antibodies were diluted in block/diluent buffer with 3-fold dilutions and incubated for 2 hours at room temperature.
After aspirating and washing as above, 50 pll/well of sheep anti C1q (Serotec AHP033), diluted 3, 560-fold in block/diluent buffer, were added. After incubation for 1 h at room temperature, the wells were aspirated and washed as above. 50 pll/well of donkey anti-sheep IgG HRP conjugate (Jackson ImmunoResearch 713-035-147) diluted to 1:10,000 in block/diluent were then added, and the wells incubated for 1 h at room temperature.
After aspirating and washing as above, 100 all TMB substrate (420 plM TMB, 0.004% H2O2 in 0.1 M sodium acetate/citric acid buffer, pH 4.9) were added and incubated for 2 min before the reaction was stopped with 100 ul 2 N sulfuric acid. The absorbance was read at 450 nm with a Softmax PRO instrument, and Softmax software was used to determine the relative binding affinity (C value) with a 4-parameter fit.

Assay [4] has as its target T2, CD64 (FcγRI). Description: solution competition SPR (Biacore). The method, then: as §1
Assay [5] concerns the target T4, α4β1 (VLA-4) as used in the competition ELISAs (UniProt P13612 34-970; P05556 21-728). Description: competition ELISA; mixture of mouse HP1/2 with test mAb binding to integrin.
For assay [6], the target named is T4, α4β1 (VLA-4) as used in the competition …. Description: competition ELISA; integrin preincubated with test mAb, then murine HP1/2 as competing reagent.
For another assay, the target named is T5, human alpha-4 integrin (human, UniProt P13612 34-970, limits assumed).
T5 construct: also called the human receptor
Description: in vitro binding affinity comparison; method not described.

Assay [7] concerns the target T6, cynomolgus monkey alpha-4 integrin (cynomolgus monkey, UniProt A0A2K5U6S2 34-970).
T6 construct: also called cynomolgus alpha-4 integrin
Described as above.

Assay [8] deals with T1, CD16 (FcγRIIIa V158). Description: solution competition SPR (Biacore). This is another data set of the same source.

B1: CN578 (hu5c8 IgG1 T299K, aglycosylated) (antibody)
heavy: not shown
light: DIVLTQSPATLSVSPGERATISCRASQRVSSSTYSYMHWYQQKPGQPPKLLIKYASNLESGVPARFSGSGSGTDFTLTISSVEPEDFATYYCQHSWEIPPTFGGGTKLEIKRTVAAPSVFIFPPSDEQLKSGTASVVCLLNNFYPREAKVQWKVDNALQSGNSQESVTEQDSKDSTYSLSSTLTLSKADYEKHKVYACEVTHQGLSSPVTKSFNRGEC
modifications: N-terminal Q largely converted to pyroglutamic acid (mass spectrometry)
notes: Mass spectrometry assigns HC 1-447, which fits VH (118) + IgG1 CH1 (98) + Fc moiety (231); also called aglycosylated IgG1 A299K
In the case of B1, the IC50 in the assay with CD16 (FcγRIIIa V158) [1] was 1320 µM; in the assay with CD64 (FcγRI) [2], 1420 µM.

B2: EC326 (hu5c8 IgG4.P S228P, T307P, L309K, D399S, glycosylated) (antibody)
heavy: QVQLVQSGAEVVKPGASVKLSCKASGYIFTSYYMYWVKQAPGQGLEWIGEINPSNGDTNFNEKFKSKATLTVDKSASTAYMELSSLRSEDTAVYYCTRSDGRNDMDSWGQGTLVTVSSASTKGPSVFPLAPCSRSTSESTAALGCLVKDYFPEPVTVSWNSGALTSGVHTFPAVLQSSGLYSLSSVVTVPSSSLGTKTYTCNVDHKPSNTKVDKRVESKYGPPCPPCPAPEFLGGPSVFLFPPKPKDTLMISRTPEVTCVVVDVSQEDPEVQFNWYVDGVEVHNAKTKPREEQFNSTYRVVSVLPVKHQDWLNGKEYKCKVSNKGLPSSIEKTISKAKGQPREPQVYTLPPSQEEMTKNQVSLTCLVKGFYPSDIAVEWESNGQPENNYKTTPPVLSSDGSFFLYSRLTVDKSRWQEGNVFSCSVMHEALHNHYTQKSLSLSLG
light: DIVLTQSPATLSVSPGERATISCRASQRVSSSTYSYMHWYQQKPGQPPKLLIKYASNLESGVPARFSGSGSGTDFTLTISSVEPEDFATYYCQHSWEIPPTFGGGTKLEIKRTVAAPSVFIFPPSDEQLKSGTASVVCLLNNFYPREAKVQWKVDNALQSGNSQESVTEQDSKDSTYSLSSTLTLSKADYEKHKVYACEVTHQGLSSPVTKSFNRGEC
modifications: N-terminal Q largely converted to pyroglutamic acid; N-linked G0F/G1F/G2F glycans (mass spectrometry)
notes: copies: 2 + 2
As for B2, the IC50 with CD64 (FcγRI) [2] turned out to be 7.56 µM; in the assay with CD16 (FcγRIIIa V158) [3], 380 µM.

B3: EAG2287 (hu5c8 S228P/T299K, IgG4 CH2/IgG1 CH3 chimera, aglycosylated) (antibody)
heavy: QVQLVQSGAEVVKPGASVKLSCKASGYIFTSYYMYWVKQAPGQGLEWIGEINPSNGDTNFNEKFKSKATLTVDKSASTAYMELSSLRSEDTAVYYCTRSDGRNDMDSWGQGTLVTVSSASTKGPSVFPLAPCSRSTSESTAALGCLVKDYFPEPVTVSWNSGALTSGVHTFPAVLQSSGLYSLSSVVTVPSSSLGTKTYTCNVDHKPSNTKVDKRVESKYGPPCPPCPAPEFLGGPSVFLFPPKPKDTLMISRTPEVTCVVVDVSQEDPEVQFNWYVDGVEVHNAKTKPREEQFNSKYRVVSVLTVLHQDWLNGKEYKCKVSNKGLPSSIEKTISKAKGQPREPQVYTLPPSRDELTKNQVSLTCLVKGFYPSDIAVEWESNGQPENNYKTTPPVLDSDGSFFLYSKLTVDKSRWQQGNVFSCSVMHEALHNHYTQKSLSLSPG
light: DIVLTQSPATLSVSPGERATISCRASQRVSSSTYSYMHWYQQKPGQPPKLLIKYASNLESGVPARFSGSGSGTDFTLTISSVEPEDFATYYCQHSWEIPPTFGGGTKLEIKRTVAAPSVFIFPPSDEQLKSGTASVVCLLNNFYPREAKVQWKVDNALQSGNSQESVTEQDSKDSTYSLSSTLTLSKADYEKHKVYACEVTHQGLSSPVTKSFNRGEC
notes: also called pEAG2287; copies: 2 + 2
Regarding B3, the binding result with human C1q and with CD16 (FcγRIIIa V158) [1] was “no binding” each time. The molecule further returned an IC50 in the assay with CD64 (FcγRI) [4] of 4040 µM.

B4: EAG2296 (hu5c8 S228P/T299A, IgG4 CH2/IgG1 CH3 chimera, aglycosylated) (antibody)
heavy: QVQLVQSGAEVVKPGASVKLSCKASGYIFTSYYMYWVKQAPGQGLEWIGEINPSNGDTNFNEKFKSKATLTVDKSASTAYMELSSLRSEDTAVYYCTRSDGRNDMDSWGQGTLVTVSSASTKGPSVFPLAPCSRSTSESTAALGCLVKDYFPEPVTVSWNSGALTSGVHTFPAVLQSSGLYSLSSVVTVPSSSLGTKTYTCNVDHKPSNTKVDKRVESKYGPPCPPCPAPEFLGGPSVFLFPPKPKDTLMISRTPEVTCVVVDVSQEDPEVQFNWYVDGVEVHNAKTKPREEQFNSAYRVVSVLTVLHQDWLNGKEYKCKVSNKGLPSSIEKTISKAKGQPREPQVYTLPPSRDELTKNQVSLTCLVKGFYPSDIAVEWESNGQPENNYKTTPPVLDSDGSFFLYSKLTVDKSRWQQGNVFSCSVMHEALHNHYTQKSLSLSPG
light: DIVLTQSPATLSVSPGERATISCRASQRVSSSTYSYMHWYQQKPGQPPKLLIKYASNLESGVPARFSGSGSGTDFTLTISSVEPEDFATYYCQHSWEIPPTFGGGTKLEIKRTVAAPSVFIFPPSDEQLKSGTASVVCLLNNFYPREAKVQWKVDNALQSGNSQESVTEQDSKDSTYSLSSTLTLSKADYEKHKVYACEVTHQGLSSPVTKSFNRGEC
notes: also called pEAG2296; copies: 2 + 2
As to B4, the binding result with human C1q is “no binding”. The IC50 with CD16 (FcγRIIIa V158) [1] came to 1320 µM.

B5: EC300 (hu5c8 IgG4.P S228P, T307P, glycosylated) (antibody)
heavy: not shown
light: DIVLTQSPATLSVSPGERATISCRASQRVSSSTYSYMHWYQQKPGQPPKLLIKYASNLESGVPARFSGSGSGTDFTLTISSVEPEDFATYYCQHSWEIPPTFGGGTKLEIKRTVAAPSVFIFPPSDEQLKSGTASVVCLLNNFYPREAKVQWKVDNALQSGNSQESVTEQDSKDSTYSLSSTLTLSKADYEKHKVYACEVTHQGLSSPVTKSFNRGEC
notes: copies: 2 + 2
As to B5, the IC50 in the assay with CD64 (FcγRI) [2] was found to be 11.2 µM; with CD16 (FcγRIIIa V158) [3], 564 µM.

B6: H1L0 (antibody, V domains shown)
VH: EVQLVQSGAEVKKPGATVKISCKASGFNIKDTYMHWVQQAPGKGLEWMGRIDPASGDTKYDPKFQVRVTITADTSTDTAYMELSSLRSEDTAVYYCADGMWVSTGYALDFWGQGTLVTVSS
VL: DIVMTQSPDSLAVSLGERATINCKASQSVTNDVAWYQQKPGQPPKLLIYYASNRYTGVPDRFSGSGSGTDFTLTISSLQAEDVAVYYCQQDYSSPYTFGQGTKVEIK
notes: also called Design H1 / Design L0
For the molecule B6, the IC50 in [5] is 0.00446 µM; in assay [6], 0.00187 µM.

B7: HP1/2 Fab fragment (Fab, V domains shown)
VH: EVQLVQSGAEVKKPGATVKISCKASGFNIKDTYMHWVQQAPGKGLEWMGRIDPASGDTKYDPKFQVRVTITADTSTDTAYMELSSLRSEDTAVYYCADGMWVSTGYALDFWGQGTLVTVSS
VL: SIVMTQSPDSLAVSLGERATINCKASQSVTNDVAWYQQKPGQPPKLLIYYASNRYTGVPDRFSGSGYGTDFTFTISSLQAEDVATYFCQQDYSSPYTFGQGTKVEIKR
With B7, the “fold higher affinity than natalizumab Fab fragment” value in the assay with human alpha-4 integrin was roughly 6 fold. In addition, in [7], the “fold weaker affinity than to the human receptor” value was roughly 6 fold.

B8: H1L2 (antibody, V domains shown)
VH: EVQLVQSGAEVKKPGATVKISCKASGFNIKDTYMHWVQQAPGKGLEWMGRIDPASGDTKYDPKFQVRVTITADTSTDTAYMELSSLRSEDTAVYYCADGMWVSTGYALDFWGQGTLVTVSS
VL: SIVMTQSPDSLAVSLGERATINCKASQSVTNDVAWYQQKPGQPPKLLIYYASNRYTGVPDRFSGSGYGTDFTLTISSLQAEDVAVYFCQQDYSSPYTFGQGTKVEIK
notes: also called Design H1 / Design L2
In the case of B8, the IC50 in assay [5] is 0.00134 µM; in [6], 0.0009 µM.

B9: EAG2476 (YC406-Fc; agly IgG4-Fc T299K, T307P, L309K, D399S) (other)
Fc: ESKYGPPCPPCPAPEFLGGPSVFLFPPKPKDTLMISRTPEVTCVVVDVSQEDPEVQFNWYVDGVEVHNAKTKPREEQFNSKYRVVSVLPVKHQDWLNGKEYKCKVSNKGLPSSIEKTISKAKGQPREPQVYTLPPSQEEMTKNQVSLTCLVKGFYPSDIAVEWESNGQPENNYKTTPPVLSSDGSFFLYSRLTVDKSRWQEGNVFSCSVMHEALHNHYTQKSLSLSLG
modifications: Aglycosylated through T299K. The Fc is a homodimer; one chain is given.
For the molecule B9, in the assay with CD16 (FcγRIIIa V158) [8], the IC50 was 1320 µM.

These data come from patent US20210238289A1 (Biogen, published 2021).
